Experimental data taken from patent publication US20240034783A1 (SOTIO BIOTECH A S, published 2024).

B1: cCl1-1 (antibody, V domains shown)
VH: QIQLVQSGPELKKPGESVKISCKASGYTFTDYAMHWVKQAPGKGLKWMGWINTYTGKPTYADDFKGRFVFSLEASASTANLQISNLKNEDTATYFCARAVFYGYTMDAWGQGTSVTVSS
VL: DIQMTQSPASLSASLGETISIACRASEDIYSNLAWYQQKSGKSPQLLIFSVKRLQDGVPSRFSGSGSGTQYSLKISGMQPEDEGDYFCLQGSNFPLTFGSGTKLEIK
notes: Chimeric antibody from a rat hybridoma; not built in; also called chimeric cCl1-1 antibody
B2: hCl1a (antibody, human IgG1, kappa, V domains shown)
VH: QVQLVQSGAEVKKPGASVKVSCKASGYTFTDYAMHWVRQAPGQRLEWMGWINTYTGKPTYAQKFQGRVTITRDTSASTAYMELSSLRSEDTAVYYCARAVFYGYTMDAWGQGTLVTVSS
VL: DIQMTQSPSSLSASVGDRVTITCRASEDIYSNLAWYQQKPGKAPKLLIFSVKRLQDGVPSRFSGSGSGTDFTLTISSLQPEDFATYYCLQGSNFPLTFGQGTKVEIKR
notes: Humanized
B3: hCl1g (antibody, human IgG1, kappa, V domains shown)
VH: QVQLVQSGAEVKKPGASVKVSCKASGYTFTDYAMHWVRQAPGQRLEWMGWINAYTGKPTYAQKFQGRVTITRDTSASTAYMELSSLRSEDTAVYYCARAVFYGYTMDAWGQGTLVTVSS
VL: DIQMTQSPSSLSASVGDRVTITCRTSEDIYSNFAWYQQKPGKAPKLLIYSVNRLQDGVPSRFSGSGSGTDFTLTISSLQPEDFATYYCLQGSKFPLTFGQGTKVEIKR
notes: Humanized
B4: hCl1e (antibody, human IgG1, kappa, V domains shown)
VH: QVQLVQSGAEVKKPGASVKVSCKASGYTFTDYAMYWVRQAPGQRLEWMGWINTYTGKPTYAQKFQGRVTITRDTSASTAYMELSSLRSEDTAVYYCARAVFYGYTMDAWGQGTLVTVSS
VL: DIQMTQSPSSLSASVGDRVTITCRASEDIYSNLAWYQQKPGKAPKLLIFSVKRLQDGVPSRFSGSGSGTDFTLTISSLQPEDFATYYCLQGSNFPLTFGQGTKVEIKR
notes: Humanized
B5: hCl1h (antibody, human IgG1, kappa, V domains shown)
VH: QVQLVQSGAEVKKPGASVKVSCKASGYTFTDYAMYWVRQAPGQRLEWMGWINAYTGKPTYAQKFQGRVTITRDTSASTAYMELSSLRSEDTAVYYCARAVYYGYTMDAWGQGTLVTVSS
VL: DIQMTQSPSSLSASVGDRVTITCRASEDIYSNLAWYQQKPGKAPKLLIYSVKRLQDGVPSRFSGSGSGTDFTLTISSLQPEDFATYYCLQGSNFPLTFGQGTKVEIKR
notes: Humanized
B6: hCl1i (antibody, human IgG1, kappa, V domains shown)
VH: QVQLVQSGAEVKKPGASVKVSCKASGYTFTDYAMYWVRQAPGQRLEWMGWINAYTGKPTYAQKFQGRVTITRDTSASTAYMELSSLRSEDTAVYYCARAVYYGYTMDAWGQGTLVTVSS
VL: DIQMTQSPSSLSASVGDRVTITCRASEDIYSNLAWYQQKPGKAPKLLIFSVKRLQDGVPSRFSGSGSGTDFTLTISSLQPEDFATYYCLQGSNFPLTFGQGTKVEIKR
notes: Humanized
B7: hCl1d (antibody, human IgG1, kappa, V domains shown)
VH: QVQLVQSGAEVKKPGASVKVSCKASGYTFTDYAMHWVRQAPGQRLEWMGWINTYTGKPTYSQKFQGRVTITRDTSASTAYMELSSLRSEDTAVYYCARAVFYGYTMDAWGQGTLVTVSS
VL: DIQMTQSPSSLSASVGDRVTITCRTSEDIYSNFAWYQQKPGKAPKLLIYSVNRLQDGVPSRFSGSGSGTDFTLTISSLQPEDFATYYCLQGSKFPLTFGQGTKVEIKR
notes: Humanized
B8: hCl1f (antibody, human IgG1, kappa, V domains shown)
VH: QVQLVQSGAEVKKPGASVKVSCKASGYTFTDYAMHWVRQAPGQRLEWMGWINAYTGKPTYAQKFQGRVTITRDTSASTAYMELSSLRSEDTAVYYCARAVFYGYTMDAWGQGTLVTVSS
VL: DIQMTQSPSSLSASVGDRVTITCRASEDIYSNLAWYQQKPGKAPKLLIYSVKRLQDGVPSRFSGSGSGTDFTLTISSLQPEDFATYYCLQGSNFPLTFGQGTKVEIKR
notes: Humanized
B9: hCl1c (antibody, human IgG1, kappa, V domains shown)
VH: QVQLVQSGAEVKKPGASVKVSCKASGYTFTDYAMHWVRQAPGQRLEWMGWINTYTGKPTYSQKFQGRVTITRDTSASTAYMELSSLRSEDTAVYYCARAVFYGYTMDAWGQGTLVTVSS
VL: DIQMTQSPSSLSASVGDRVTITCRTSEDIYSNLAWYQQKPGKAPKLLIFAIKRLQDGVPSRFSGSGSGTDFTLTISSLQPEDFATYYCLQGSKFPLTFGQGTKVEIKR
notes: Humanized
B10: hCl1j (antibody, human IgG1, kappa, V domains shown)
VH: QVQLVQSGAEVKKPGASVKVSCKASGYTFTDYAMYWVRQAPGQRLEWMGWINAYTGKPTYAQKFQGRVTITRDTSASTAYMELSSLRSEDTAVYYCARAVYYGYTMDAWGQGTLVTVSS
VL: DIQMTQSPSSLSASVGDRVTITCRTSEDIYSNLAWYQQKPGKAPKLLIFAIKRLQDGVPSRFSGSGSGTDFTLTISSLQPEDFATYYCLQGSKFPLTFGQGTKVEIKR
notes: Humanized
B11: hCl1b (antibody, human IgG1, kappa, V domains shown)
VH: QVQLVQSGAEVKKPGASVKVSCKASGYTFTDYAMHWVRQAPGQRLEWMGWINTYTGKPTYSQKFQGRVTITRDTSASTAYMELSSLRSEDTAVYYCARAVFYGYTMDAWGQGTLVTVSS
VL: DIQMTQSPSSLSASVGDRVTITCRASEDIYSNLAWYQQKPGKAPKLLIFSVKRLQDGVPSRFSGSGSGTDFTLTISSLQPEDFATYYCLQGSNFPLTFGQGTKVEIKR
notes: Humanized

Tests used:
[1] = molecular target: T1, human CLDN18.2 (human); assay: flow cytometry; % positive tumor cells divided by % positive healthy stomach cells
T1 construct: also called huCLDN18.2; hCLDN18.2
Experimental: (§1) Two Balb/c mice were implanted subcutaneously with 1×10⁶ A549 cells expressing CLDN18.2 in 100 μl of 50% Matrigel and tumors growth was monitored over a few weeks until the tumor reached the desired size between 150-450 mm 3. Healthy stomach tissue and tumor tissue was collected for FC analysis. The collected tissues were cut into small pieces and digested with the Miltenyi tumor dissociation kit (MACS Miltenyi Biotec, Germany). Tissue pieces were incubated with dissociation buffer (prepared according to the manufacturer instruction) in 6 well plates for 30 min in 37° C. under permanent gentle rocking motion. Samples were resuspended and strained through a 70 μm cell strainer (Corning, USA) followed by a wash with 20 ml FC buffer (PBS+2% FBS). Cell suspensions were centrifuged (5 min at 400 g for 4° C.) and the supernatants were discarded. If needed, cell suspensions were passed through a strainer and centrifuged repeatedly and pellets resuspended in 5 ml of red blood cell lysis buffer (Biolegend, USA), incubated on ice for 4 min. After incubation, 25 ml of PBS was added, and the suspensions were centrifuged again (5 min at 400 g for 4° C.). Pellets were resuspended in FC buffer (0.5-3 ml based on pellets). Equal number of cells were transferred into 96 well plates and further processed for FC analysis. The cells in the plates were washed with PBS and centrifuged (400 g for 2 min at 4° C.). […] After incubation, cells were washed twice in PBS and centrifuged (400 g for 2 min at 4° C.). Pellets were resuspended in 50 μl/well of secondary staining mix (PBS+PE-labelled anti-human antibody) (Thermo Fisher Scientific, USA), and incubated 25 min on ice. After incubation cells were washed again twice in PBS. Pellets were resuspended in 100 μl of PBS containing DAPI. Plates were kept on ice until FC analysis. For FC analysis, live cells were separated from dead cells by forward scatter and DAPI stain. Live cells were then gated for the presence of cytokeratin ([…]) and bound CLDN18.2 antibodies (PE positive cells).

[2] = molecular target: T1, human CLDN18.2; assay: flow cytometry, live cells from mouse tumor of A549 cells expressing CLDN18.2, antibody 4 µg/ml
Experimental: as §1

[3] = molecular target: T1, human CLDN18.2; assay: flow cytometry titration, PA-TU-8988S-High cells
Experimental: (§2) In order to have a more homogenous cell population, the cells were sorted by FACS to select only cells with a the higher CLDN18.2 expression. […] After wash in FACS buffer, the cells were incubated with the PE-labeled Fey specific IgG goat anti-human secondary antibody (eBioscience) on ice for 30 min. After wash, the stained cells were resuspended in FACS buffer, analyzed and sorted by a FACSAria™ instrument, separating medium expressing cells from high expressing cells (FIG. 2B). […] HEK293T cells overexpressing CLDN18.2 or CLDN18.1 were generated as described in Example 3 and the expression of CLDN18.2 was analyzed by flow cytometry (FIG. 3).
(§3) A PE-coupled secondary anti-human IgG antibody was added to the cells for additional 30 min at 4° C. after washes with the FC buffer, followed by further washes with FC buffer. The cells were then resuspended in 100 μl FC buffer and measured with a FACSCalibur™ cell analyzer (BD Biosciences, USA).

[4] = molecular target: T1, human CLDN18.2; assay: flow cytometry titration, HEK293T cells overexpressing CLDN18.2
Experimental: as §2, §3

Row | Binder | Ratio tumor/stomach (Average) [1] | Ratio tumor/stomach (Mouse 1) [1] | Ratio tumor/stomach (Mouse 2) [1] | % of positive tumor cells (Average) [2] [%] | % of positive tumor cells (Mouse 1) [2] [%] | % of positive tumor cells (Mouse 2) [2] [%] | EC50 [3] [µg/mL] | Max MFI [3] [MFI] | EC50 [4] [µg/mL] | Max MFI [4] [MFI]
1 | B1 | 74.3 | 92.5 | 50 | 26 | 37 | 15 | – | – | – | –
2 | B2 | 34.7 | 28.3 | 60 | 26 | 34 | 18 | 2.43 | 1650 | 0.598 | 1880
3 | B3 | – | – | – | – | – | – | 1.77 | 1250 | 0.678 | 1440
4 | B4 | – | – | – | – | – | – | 2.24 | 1860 | 0.558 | 1940
5 | B5 | – | – | – | – | – | – | 1.75 | 1950 | 0.432 | 2080
6 | B6 | – | – | – | – | – | – | 1.23 | 2090 | 0.444 | 2180
7 | B7 | – | – | – | – | – | – | 1.93 | 1530 | 0.541 | 1640
8 | B8 | 329 | 800 | 140 | 23 | 32 | 14 | 2.14 | 1600 | 0.795 | 1720
9 | B9 | 74 | 290 | 20 | 18.5 | 29 | 8 | 1.47 | 1050 | 0.753 | 1230
10 | B10 | – | – | – | – | – | – | 1.16 | 1700 | 0.408 | 1850
11 | B11 | 53.1 | 43 | 131 | 30 | 43 | 17 | 1.98 | 1720 | 0.572 | 1860
